We go through 1 substance from publication PMC6635623.

“And” between values parts separate entries of the source, which are not always exact repeats. Equal values may be shown once.

In the experiment the target is Hfq-FLAG (Yersinia pestis Hfq with C-terminal 3×FLAG tag) (Yersinia pestis). The experiment in a line: […]; 25 mM Tris-HCl (pH 8.0) […].

One may read the stoichiometry N as a count of units in the complex or per binding partner. On to “Hfq-FLAG (Yersinia pestis Hfq with C-terminal 3×FLAG tag) (natural protein)”, for which the stoichiometry N was 3 and 6.
